For 1 substance, Kd, koff and kon results are on record in patent US20230305005A1.

Test [1] deals with RBD polypeptide (RBD portion of the SARS-CoV-2 S1 spike protein) (SARS-CoV-2) (UniProt P0DTC2). Kind of test: BLI, biotinylated antibody on streptavidin tip, RBD polypeptide in PBS; row for 100 nM RBD.
Test [2] has the same target. As to the kind of experiment: BLI, biotinylated antibody on streptavidin tip, RBD polypeptide in PBS; row for 10 nM RBD.

In test [1], Ty1-Biotin (VHH) gave a Kd of 9.93 nM, a koff of 0.00101 s⁻¹ and a kon of 102000 M⁻¹ s⁻¹. Besides, in test [2], the Kd is 9.93 nM, the koff worked out at 0.00101 s⁻¹ and the kon stood at 102000 M⁻¹ s⁻¹.
